B1: equine IgG1 T286W (antibody, part only; not given: Variable domains, not shown: another chain or arm of the molecule)
constant: ASTTAPKVFALAPGCGTTSDSTVALGCLVSGYFPEPVKVSWNSGSLTSGVHTFPSVLQSSGFYSLSSMVTVPASTWTSETYICNVVHAASNFKVDKRIEPIPDNHQKVCDMSKCPKCPAPELLGGPSVFIFPPNPKDTLMITRTPEVTCVVVDVSQENPDVKFNWYMDGVEVRWATTRPKEEQFNSTYRVVSVLRIQHQDWLSGKEFKCKVNNQALPQPIERTITKTKGRSQEPQVYVLAPHPDELSKSKVSVTCLVKDFYPPEINIEWQSNGQPELETKYSTTQAQQDSDGSYFLYSKLSVDRNRWQQGTTFTCGVMHEALHNHYTQKNVSKNPGK
B2: equine IgG1 T286Y (antibody, part only; not given: variable domains, not shown: another chain or arm of the molecule)
constant: ASTTAPKVFALAPGCGTTSDSTVALGCLVSGYFPEPVKVSWNSGSLTSGVHTFPSVLQSSGFYSLSSMVTVPASTWTSETYICNVVHAASNFKVDKRIEPIPDNHQKVCDMSKCPKCPAPELLGGPSVFIFPPNPKDTLMITRTPEVTCVVVDVSQENPDVKFNWYMDGVEVRYATTRPKEEQFNSTYRVVSVLRIQHQDWLSGKEFKCKVNNQALPQPIERTITKTKGRSQEPQVYVLAPHPDELSKSKVSVTCLVKDFYPPEINIEWQSNGQPELETKYSTTQAQQDSDGSYFLYSKLSVDRNRWQQGTTFTCGVMHEALHNHYTQKNVSKNPGK
B3: equine IgG4 Y436K (antibody, part only; not given: variable domains, not shown: another chain or arm of the molecule)
constant: ASTTAPKVFPLASHSAATSGSTVALGCLVSSYFPEPVTVSWNSGALTSGVHTFPSVLQSSGLYSLSSMVTVPASSLKSQTYICNVAHPASSTKVDKKIVIKECNGGCPAECLQVGPSVFIFPPKPKDVLMISRTPTVTCVVVDVGHDFPDVQFNWYVDGVETHTATTEPKQEQFNSTYRVVSVLPIQHKDWLSGKEFKCKVNNKALPAPVERTISKPTGQPREPQVYVLAPHRDELSKNKVSVTCLVKDFYPTDIDIEWKSNGQPEPETKYSTTPAQLDSDGSYFLYSKLTVETNRWQQGTTFTCAVMHEALHNHKTEKSVSKSPGK
B4: equine IgG4 T286A (antibody, part only; not given: variable domains, not shown: another chain or arm of the molecule)
constant: ASTTAPKVFPLASHSAATSGSTVALGCLVSSYFPEPVTVSWNSGALTSGVHTFPSVLQSSGLYSLSSMVTVPASSLKSQTYICNVAHPASSTKVDKKIVIKECNGGCPAECLQVGPSVFIFPPKPKDVLMISRTPTVTCVVVDVGHDFPDVQFNWYVDGVETHAATTEPKQEQFNSTYRVVSVLPIQHKDWLSGKEFKCKVNNKALPAPVERTISKPTGQPREPQVYVLAPHRDELSKNKVSVTCLVKDFYPTDIDIEWKSNGQPEPETKYSTTPAQLDSDGSYFLYSKLTVETNRWQQGTTFTCAVMHEALHNHYTEKSVSKSPGK
B5: equine IgG4 Y436V (antibody, part only; not given: variable domains, not shown: another chain or arm of the molecule)
constant: ASTTAPKVFPLASHSAATSGSTVALGCLVSSYFPEPVTVSWNSGALTSGVHTFPSVLQSSGLYSLSSMVTVPASSLKSQTYICNVAHPASSTKVDKKIVIKECNGGCPAECLQVGPSVFIFPPKPKDVLMISRTPTVTCVVVDVGHDFPDVQFNWYVDGVETHTATTEPKQEQFNSTYRVVSVLPIQHKDWLSGKEFKCKVNNKALPAPVERTISKPTGQPREPQVYVLAPHRDELSKNKVSVTCLVKDFYPTDIDIEWKSNGQPEPETKYSTTPAQLDSDGSYFLYSKLTVETNRWQQGTTFTCAVMHEALHNHVTEKSVSKSPGK
B6: equine IgG4 T286C (antibody, part only; not given: variable domains, not shown: another chain or arm of the molecule)
constant: ASTTAPKVFPLASHSAATSGSTVALGCLVSSYFPEPVTVSWNSGALTSGVHTFPSVLQSSGLYSLSSMVTVPASSLKSQTYICNVAHPASSTKVDKKIVIKECNGGCPAECLQVGPSVFIFPPKPKDVLMISRTPTVTCVVVDVGHDFPDVQFNWYVDGVETHCATTEPKQEQFNSTYRVVSVLPIQHKDWLSGKEFKCKVNNKALPAPVERTISKPTGQPREPQVYVLAPHRDELSKNKVSVTCLVKDFYPTDIDIEWKSNGQPEPETKYSTTPAQLDSDGSYFLYSKLTVETNRWQQGTTFTCAVMHEALHNHYTEKSVSKSPGK
B7: equine IgG4 Y436R (antibody, part only; not given: variable domains, not shown: another chain or arm of the molecule)
constant: ASTTAPKVFPLASHSAATSGSTVALGCLVSSYFPEPVTVSWNSGALTSGVHTFPSVLQSSGLYSLSSMVTVPASSLKSQTYICNVAHPASSTKVDKKIVIKECNGGCPAECLQVGPSVFIFPPKPKDVLMISRTPTVTCVVVDVGHDFPDVQFNWYVDGVETHTATTEPKQEQFNSTYRVVSVLPIQHKDWLSGKEFKCKVNNKALPAPVERTISKPTGQPREPQVYVLAPHRDELSKNKVSVTCLVKDFYPTDIDIEWKSNGQPEPETKYSTTPAQLDSDGSYFLYSKLTVETNRWQQGTTFTCAVMHEALHNHRTEKSVSKSPGK
B8: equine IgG4 Y436T (antibody, part only; not given: variable domains, not shown: another chain or arm of the molecule)
constant: ASTTAPKVFPLASHSAATSGSTVALGCLVSSYFPEPVTVSWNSGALTSGVHTFPSVLQSSGLYSLSSMVTVPASSLKSQTYICNVAHPASSTKVDKKIVIKECNGGCPAECLQVGPSVFIFPPKPKDVLMISRTPTVTCVVVDVGHDFPDVQFNWYVDGVETHTATTEPKQEQFNSTYRVVSVLPIQHKDWLSGKEFKCKVNNKALPAPVERTISKPTGQPREPQVYVLAPHRDELSKNKVSVTCLVKDFYPTDIDIEWKSNGQPEPETKYSTTPAQLDSDGSYFLYSKLTVETNRWQQGTTFTCAVMHEALHNHTTEKSVSKSPGK
B9: equine IgG4 T286E (antibody, part only; not given: variable domains, not shown: another chain or arm of the molecule)
constant: ASTTAPKVFPLASHSAATSGSTVALGCLVSSYFPEPVTVSWNSGALTSGVHTFPSVLQSSGLYSLSSMVTVPASSLKSQTYICNVAHPASSTKVDKKIVIKECNGGCPAECLQVGPSVFIFPPKPKDVLMISRTPTVTCVVVDVGHDFPDVQFNWYVDGVETHEATTEPKQEQFNSTYRVVSVLPIQHKDWLSGKEFKCKVNNKALPAPVERTISKPTGQPREPQVYVLAPHRDELSKNKVSVTCLVKDFYPTDIDIEWKSNGQPEPETKYSTTPAQLDSDGSYFLYSKLTVETNRWQQGTTFTCAVMHEALHNHYTEKSVSKSPGK
B10: equine IgG4 Y436N (antibody, part only; not given: variable domains, not shown: another chain or arm of the molecule)
constant: ASTTAPKVFPLASHSAATSGSTVALGCLVSSYFPEPVTVSWNSGALTSGVHTFPSVLQSSGLYSLSSMVTVPASSLKSQTYICNVAHPASSTKVDKKIVIKECNGGCPAECLQVGPSVFIFPPKPKDVLMISRTPTVTCVVVDVGHDFPDVQFNWYVDGVETHTATTEPKQEQFNSTYRVVSVLPIQHKDWLSGKEFKCKVNNKALPAPVERTISKPTGQPREPQVYVLAPHRDELSKNKVSVTCLVKDFYPTDIDIEWKSNGQPEPETKYSTTPAQLDSDGSYFLYSKLTVETNRWQQGTTFTCAVMHEALHNHNTEKSVSKSPGK
B11: equine IgG4 Y436S (antibody, part only; not given: variable domains, not shown: another chain or arm of the molecule)
constant: ASTTAPKVFPLASHSAATSGSTVALGCLVSSYFPEPVTVSWNSGALTSGVHTFPSVLQSSGLYSLSSMVTVPASSLKSQTYICNVAHPASSTKVDKKIVIKECNGGCPAECLQVGPSVFIFPPKPKDVLMISRTPTVTCVVVDVGHDFPDVQFNWYVDGVETHTATTEPKQEQFNSTYRVVSVLPIQHKDWLSGKEFKCKVNNKALPAPVERTISKPTGQPREPQVYVLAPHRDELSKNKVSVTCLVKDFYPTDIDIEWKSNGQPEPETKYSTTPAQLDSDGSYFLYSKLTVETNRWQQGTTFTCAVMHEALHNHSTEKSVSKSPGK
B12: equine IgG4 Y436L (antibody, part only; not given: variable domains, not shown: another chain or arm of the molecule)
constant: ASTTAPKVFPLASHSAATSGSTVALGCLVSSYFPEPVTVSWNSGALTSGVHTFPSVLQSSGLYSLSSMVTVPASSLKSQTYICNVAHPASSTKVDKKIVIKECNGGCPAECLQVGPSVFIFPPKPKDVLMISRTPTVTCVVVDVGHDFPDVQFNWYVDGVETHTATTEPKQEQFNSTYRVVSVLPIQHKDWLSGKEFKCKVNNKALPAPVERTISKPTGQPREPQVYVLAPHRDELSKNKVSVTCLVKDFYPTDIDIEWKSNGQPEPETKYSTTPAQLDSDGSYFLYSKLTVETNRWQQGTTFTCAVMHEALHNHLTEKSVSKSPGK
B13: equine IgG4 Y436M (antibody, part only; not given: variable domains, not shown: another chain or arm of the molecule)
constant: ASTTAPKVFPLASHSAATSGSTVALGCLVSSYFPEPVTVSWNSGALTSGVHTFPSVLQSSGLYSLSSMVTVPASSLKSQTYICNVAHPASSTKVDKKIVIKECNGGCPAECLQVGPSVFIFPPKPKDVLMISRTPTVTCVVVDVGHDFPDVQFNWYVDGVETHTATTEPKQEQFNSTYRVVSVLPIQHKDWLSGKEFKCKVNNKALPAPVERTISKPTGQPREPQVYVLAPHRDELSKNKVSVTCLVKDFYPTDIDIEWKSNGQPEPETKYSTTPAQLDSDGSYFLYSKLTVETNRWQQGTTFTCAVMHEALHNHMTEKSVSKSPGK
B14: equine IgG4 Y436W (antibody, part only; not given: variable domains, not shown: another chain or arm of the molecule)
constant: ASTTAPKVFPLASHSAATSGSTVALGCLVSSYFPEPVTVSWNSGALTSGVHTFPSVLQSSGLYSLSSMVTVPASSLKSQTYICNVAHPASSTKVDKKIVIKECNGGCPAECLQVGPSVFIFPPKPKDVLMISRTPTVTCVVVDVGHDFPDVQFNWYVDGVETHTATTEPKQEQFNSTYRVVSVLPIQHKDWLSGKEFKCKVNNKALPAPVERTISKPTGQPREPQVYVLAPHRDELSKNKVSVTCLVKDFYPTDIDIEWKSNGQPEPETKYSTTPAQLDSDGSYFLYSKLTVETNRWQQGTTFTCAVMHEALHNHWTEKSVSKSPGK
B15: equine IgG4 T286D (antibody, part only; not given: variable domains, not shown: another chain or arm of the molecule)
constant: ASTTAPKVFPLASHSAATSGSTVALGCLVSSYFPEPVTVSWNSGALTSGVHTFPSVLQSSGLYSLSSMVTVPASSLKSQTYICNVAHPASSTKVDKKIVIKECNGGCPAECLQVGPSVFIFPPKPKDVLMISRTPTVTCVVVDVGHDFPDVQFNWYVDGVETHDATTEPKQEQFNSTYRVVSVLPIQHKDWLSGKEFKCKVNNKALPAPVERTISKPTGQPREPQVYVLAPHRDELSKNKVSVTCLVKDFYPTDIDIEWKSNGQPEPETKYSTTPAQLDSDGSYFLYSKLTVETNRWQQGTTFTCAVMHEALHNHYTEKSVSKSPGK
B16: equine IgG4 Y436Q (antibody, part only; not given: variable domains, not shown: another chain or arm of the molecule)
constant: ASTTAPKVFPLASHSAATSGSTVALGCLVSSYFPEPVTVSWNSGALTSGVHTFPSVLQSSGLYSLSSMVTVPASSLKSQTYICNVAHPASSTKVDKKIVIKECNGGCPAECLQVGPSVFIFPPKPKDVLMISRTPTVTCVVVDVGHDFPDVQFNWYVDGVETHTATTEPKQEQFNSTYRVVSVLPIQHKDWLSGKEFKCKVNNKALPAPVERTISKPTGQPREPQVYVLAPHRDELSKNKVSVTCLVKDFYPTDIDIEWKSNGQPEPETKYSTTPAQLDSDGSYFLYSKLTVETNRWQQGTTFTCAVMHEALHNHQTEKSVSKSPGK

Target: equine FcRn (large alpha subunit p51) / equine beta-2-microglobulin complex, biotinylated (equine) (UniProt P30441)
Test: SPR (Biacore), pH 6

UniProt P30441, sequence (P30441 21-118, one chain of several): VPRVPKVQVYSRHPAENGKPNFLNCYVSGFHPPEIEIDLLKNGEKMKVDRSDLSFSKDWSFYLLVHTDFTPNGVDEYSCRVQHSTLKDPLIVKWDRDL

Binder | Kd [nM]
B1 | 18.4
B2 | 15
B3 | 20.3
B4 | 48.7
B5 | 13.2
B6 | 34.4
B7 | 48.3
B8 | 27.2
B9 | 252
B10 | 49.8
B11 | 30.9
B12 | 16
B13 | 14.3
B14 | 20.2
B15 | 492
B16 | 25.6
